Measurements from article PMC4154873, “Delineation of Interfaces on Human Alpha-Defensins Critical for Human Adenovirus and Human Papillomavirus Inhibition” (PLoS Pathogens, 2014).
Where a SMILES comes first, the peptide text is derived from it. Bridges are numbered along the chain shown (N, C = ends).

Experiments:
[1] = target: T1, rPenton (fiber and penton base) (Human adenovirus C serotype 5, UniProt P11818+P12538); experiment: biochemical; assay type: binding, human AdV-5; details: for Kd: SPR Biacore T200, CM5 chip, 2115 RU rPenton, 25°C, HBS EP+ pH 7.4, steady-state fit of RU at 80 sec association, 3 µM to 111 nM, best-fit ± SE
T1 construct: enterokinase recognition site 5′ of the full-length human AdV5 penton base (PB) gene; The baculovirus expression system was used to generate full-length human AdV-5 fiber; enterokinase recognition site (pRSET-A leader) (N); 6xHis followed by Tev protease recognition site (N, cleaved yes); made in house; host or cells: PB: E. coli BL21-CodonPlus (DE3)-RIPL; fiber: HighFive insect cells (baculovirus)
Procedure: (§1) Experiments were performed on a Biacore T200 system (Biacore, GE Healthcare) at 25°C in HBS EP+ running buffer (9.5 mM HEPES, 142.5 mM NaCl, 2.85 mM EDTA, 0.05% surfactant P20, pH 7.4). The first flow cell on a CM5 sensor chip was reserved to measure background binding, while additional cells were used to immobilize fiber, PB, and rPenton by amine-coupling chemistry. A target density of 2000 resonance units (RU) was selected for rPenton, and for Figure 3D, an equal number of fiber (708 RU) and PB (1292 RU) were also targeted for immobilization. The final RUs immobilized were: 2115 RU rPenton, 889 RU fiber, and 1061 RU PB. Analyte was injected to the flow cells at a rate of 11 µl/min and binding was measured for 3 min, followed by measuring dissociation for 5 min in analyte-free running buffer. The flow cells were regenerated with two 30 s pulses of 10 mM HCl at 11 µl/min separated by 30 s in running buffer. After regeneration, the flow cells were stabilized in running buffer for 2 min before injection of the next analyte. Data analysis was performed using Biacore T200 evaluation software and Prism (version 5.0d).
Affinity (KD) and Bmax were derived by fitting RU values at 80 s post-injection using the Steady State Surface Bound Affinity model in Biacore T200 Evaluation software. Stoichiometry (Sm) of HD5 bound to rPenton at saturation was calculated using the following equation: [drawing 1] (1)

[2] = target: rPenton, recombinant penton capsomere of human AdV-5 fiber and penton base (human AdV-5); experiment: SPR
AdV5.eGFP [3] = experiment: Neutralization of AdV5.eGFP pre-bound to A549 cells before addition of HNP1; assay type: cell-based, human AdV-5; details: virus pre-bound to cells, versus wild type HNP1
Procedure: A549 cell monolayers were infected with serial dilutions of AdV5.eGFP in black wall, clear bottom 96-well plates (Perkin-Elmer, San Jose, CA). Total monolayer fluorescence was quantified with a Typhoon 9400 variable mode imager (GE Healthcare, Piscataway, NJ) 24–30 h post-infection. A virus concentration producing 50–80% maximal signal was chosen for inhibition studies.
Serum-free DMEM (SFM) alone or containing increasing concentrations of wild type or mutant HD5 was incubated with purified AdV5.eGFP for 45 min on ice. The mixture (35 µl/well) was added to a confluent monolayer of A549 cells that had been washed twice in SFM. Cells were then incubated at 37°C for 2 h with rocking, washed, and cultured with complete DMEM for 24–30 h. Plates were scanned for eGFP signal as above, and background-subtracted total well fluorescence was quantified using ImageJ software [36]. […] For assays with HNP1, virus alone in SFM was pre-incubated on a confluent monolayer of A549 cells with rocking for 45 min at 4°C. Cells were then washed twice with chilled SFM, and SFM alone or containing increasing concentrations of wild type or mutant HNP1 was added. Cells were incubated for 45 min at 4°C and then shifted to 37°C. After 2 h, cells were washed twice with complete media and incubated a further 24–30 h at 37°C until eGFP signal was quantified as above.

[4] = target: human AdV-5 fiber (human AdV-5); experiment: immunoblot of samples heated or not before SDS-PAGE; fiber samples heated or not for 5 min to 95°C, 4D2 anti-fiber mAb; data not shown
[5] = target: human AdV-5 fiber (human AdV-5); experiment: SEC; analytical size exclusion chromatography, Superdex 200 10/300 GL; data not shown
[6] = target: human AdV-5 penton base (human AdV-5); experiment: as above
AdV5.eGFP [7] = details: cited from earlier work
fiber = experiment: SPR binding to immobilized fiber; design: species or system human AdV-5; details: CAR-Ig at 35 nM, 889 RU fiber
Procedure: as §1

penton base (PB) = experiment: SPR binding to immobilized penton base; design: species or system human AdV-5; details: CAR-Ig at 35 nM, 1061 RU PB
Procedure: as §1

Sequence of rPenton, recombinant penton capsomere of human AdV-5 fiber and penton base (human AdV-5) (P11818 whole entry, chain 1 of 2): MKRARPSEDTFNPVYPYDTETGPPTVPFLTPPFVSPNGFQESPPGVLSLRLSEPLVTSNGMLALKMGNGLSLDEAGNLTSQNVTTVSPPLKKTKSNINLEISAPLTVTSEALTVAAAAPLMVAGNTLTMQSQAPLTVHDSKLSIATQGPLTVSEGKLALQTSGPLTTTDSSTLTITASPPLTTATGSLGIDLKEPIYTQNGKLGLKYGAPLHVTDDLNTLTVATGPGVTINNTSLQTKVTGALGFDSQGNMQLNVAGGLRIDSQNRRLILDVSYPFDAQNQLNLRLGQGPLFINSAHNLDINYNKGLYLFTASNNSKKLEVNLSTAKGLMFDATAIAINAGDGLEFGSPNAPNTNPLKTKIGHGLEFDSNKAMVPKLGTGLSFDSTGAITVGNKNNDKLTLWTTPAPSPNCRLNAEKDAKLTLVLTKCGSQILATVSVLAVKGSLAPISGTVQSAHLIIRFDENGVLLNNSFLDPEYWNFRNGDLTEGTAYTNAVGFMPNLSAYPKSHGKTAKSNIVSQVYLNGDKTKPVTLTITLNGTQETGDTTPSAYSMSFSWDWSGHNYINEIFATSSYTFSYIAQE
Sequence of rPenton, recombinant penton capsomere of human AdV-5 fiber and penton base (human AdV-5) (P12538 whole entry, chain 2 of 2, further chain): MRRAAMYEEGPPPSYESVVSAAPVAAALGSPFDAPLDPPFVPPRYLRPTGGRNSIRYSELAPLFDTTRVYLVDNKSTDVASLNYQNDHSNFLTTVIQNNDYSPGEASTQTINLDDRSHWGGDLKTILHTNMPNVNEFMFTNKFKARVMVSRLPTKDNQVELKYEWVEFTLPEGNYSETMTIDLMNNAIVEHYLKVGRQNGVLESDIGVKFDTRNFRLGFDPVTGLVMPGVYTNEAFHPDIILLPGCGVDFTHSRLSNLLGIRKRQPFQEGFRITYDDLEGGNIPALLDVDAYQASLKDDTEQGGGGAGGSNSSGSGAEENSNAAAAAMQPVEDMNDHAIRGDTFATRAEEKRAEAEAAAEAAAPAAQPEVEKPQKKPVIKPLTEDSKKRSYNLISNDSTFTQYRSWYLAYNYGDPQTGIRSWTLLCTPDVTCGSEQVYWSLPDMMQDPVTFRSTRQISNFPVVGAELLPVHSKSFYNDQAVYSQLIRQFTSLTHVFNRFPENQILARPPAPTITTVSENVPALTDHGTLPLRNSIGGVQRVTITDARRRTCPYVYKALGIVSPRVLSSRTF
T1 sequence (P11818 whole entry): as the sequence (P11818 whole entry, chain 1 of 2) above
T1 sequence (P12538 whole entry): as the sequence (P12538 whole entry, chain 2 of 2, further chain) above

CC[C@H](C)[C@@H]1NC(=O)[C@H](CCC(=O)O)NC(=O)[C@@H]2CSSC[C@@H]3NC(=O)[C@H](Cc4ccc(O)cc4)NC(=O)[C@@H](NC(=O)[C@@H](NC(=O)[C@H](C)N)[C@@H](C)O)CSSC[C@@H](C(=O)N[C@@H](CCCNC(=N)N)C(=O)O)NC(=O)[C@H](CSSC[C@H](NC(=O)[C@H](CCCNC(=N)N)NC(=O)CNC(=O)[C@H]([C@@H](C)O)NC(=O)[C@H](CCCNC(=N)N)NC3=O)C(=O)N[C@@H](C)C(=O)N[C@@H]([C@@H](C)O)C(=O)N[C@@H](CCCNC(=N)N)C(=O)N[C@@H](CCC(=O)O)C(=O)N[C@@H](CO)C(=O)N[C@@H](CC(C)C)C(=O)N[C@@H](CO)C(=O)NCC(=O)N[C@@H](C(C)C)C(=O)N2)NC(=O)[C@H](CC(C)C)NC(=O)[C@H](CCCNC(=N)N)NC(=O)[C@H](Cc2ccc(O)cc2)NC(=O)[C@H](CC(C)C)NC(=O)[C@H](CCCNC(=N)N)NC(=O)CNC(=O)[C@H](CO)NC1=O [HD5, human α-defensin 5, reference compound] (H-ATCYCRTGRCATRESLSGVCEISGRLYRLCCR-OH; disulfide 3-31, 5-20, 10-30)
Kd [1]: 1.81 ± 0.22 µM

CC[C@H](C)[C@@H]1NC(=O)[C@H](CCC(=O)O)NC(=O)[C@@H]2CSSC[C@@H]3NC(=O)[C@H](Cc4ccc(O)cc4)NC(=O)[C@@H](NC(=O)[C@@H](NC(=O)[C@H](C)N)[C@@H](C)O)CSSC[C@@H](C(=O)N[C@@H](CCCNC(=N)N)C(=O)O)NC(=O)[C@H](CSSC[C@H](NC(=O)[C@H](CCCNC(=N)N)NC(=O)CNC(=O)[C@H]([C@@H](C)O)NC(=O)[C@H](CCCNC(=N)N)NC3=O)C(=O)N[C@@H](C)C(=O)N[C@@H]([C@@H](C)O)C(=O)N[C@@H](CCCNC(=N)N)C(=O)N[C@@H](CCC(=O)O)C(=O)N[C@@H](CO)C(=O)N[C@@H](CC(C)C)C(=O)N[C@@H](CO)C(=O)NCC(=O)N[C@@H](C(C)C)C(=O)N2)NC(=O)[C@H](C)NC(=O)[C@H](CCCNC(=N)N)NC(=O)[C@H](Cc2ccc(O)cc2)NC(=O)[C@H](CC(C)C)NC(=O)[C@H](CCCNC(=N)N)NC(=O)CNC(=O)[C@H](CO)NC1=O [L29A] (H-ATCYCRTGRCATRESLSGVCEISGRLYRACCR-OH; disulfide 3-31, 5-20, 10-30)
Kd [1]: 3.82 ± 0.3 µM

CC[C@H](C)[C@@H]1NC(=O)[C@H](CCC(=O)O)NC(=O)[C@@H]2CSSC[C@@H]3NC(=O)[C@H](Cc4ccc(O)cc4)NC(=O)[C@@H](NC(=O)[C@@H](NC(=O)[C@H](C)N)[C@@H](C)O)CSSC[C@@H](C(=O)N[C@@H](CCCNC(=N)N)C(=O)O)NC(=O)[C@H](CSSC[C@H](NC(=O)[C@H](CCCNC(=N)N)NC(=O)CNC(=O)[C@H]([C@@H](C)O)NC(=O)[C@H](CCCNC(=N)N)NC3=O)C(=O)N[C@@H](C)C(=O)N[C@@H]([C@@H](C)O)C(=O)N[C@@H](CCCNC(=N)N)C(=O)N[C@@H](CCC(=O)O)C(=O)N[C@@H](CO)C(=O)N[C@@H](CC(C)C)C(=O)N[C@@H](CO)C(=O)NCC(=O)N[C@@H](C(C)C)C(=O)N2)NC(=O)[C@H](CC(C)C)NC(=O)[C@H](CCCNC(=N)N)NC(=O)[C@H](C)NC(=O)[C@H](CC(C)C)NC(=O)[C@H](CCCNC(=N)N)NC(=O)CNC(=O)[C@H](CO)NC1=O [Y27A] (H-ATCYCRTGRCATRESLSGVCEISGRLARLCCR-OH; disulfide 3-31, 5-20, 10-30)
Kd [1]: 3.39 ± 0.27 µM

HD5 L29A (peptide)
Kd [2]: 3.82 µM

HD5 Y27A (peptide)
Kd [2]: 3.39 µM

HNP1 W26A
Effect of HNP1 mutation on anti-AdV activity (in words) (AdV5.eGFP [3]): most deleterious

human AdV-5 fiber (natural protein)
stoichiometry N [4]: 3 | stoichiometry N [5]: 3

human AdV-5 penton base (natural protein)
stoichiometry N [6]: 5

human neutrophil peptide 1 [HNP1]
Ability to neutralize AdV infection compared to HD5 (in words) (AdV5.eGFP [7]): reduced ability to neutralize AdV infection

B1: human α-defensin 5 (HD5), wild type (peptide)
chain: ATCYCRTGRCATRESLSGVCEISGRLYRLCCR
Kd [2]: 1.81 µM | stoichiometry N [2]: 210

B2: CAR-Ig: soluble form of the AdV receptor fused to the constant region of rabbit Ig (protein)
chain: LSITTPEEMIEKAKGETAYLPCKFTLSPEDQGPLDIEWLISPADNQKVDQVIILYSGDKIYDDYYPDLKGRVHFTSNDLKSGDASINVTNLQLSDIGTYQCKVKKAPGVANKKIHLVVLVKPSGARCYVDGSEEIGSDFKIKCEPKEGSLPLQYEWQKLSDSQKMPTSWLAEMTSSVISVKNASSEYSGTYSCTVRNRVGSDQCLLRLNVVPPSNK
modifications: left off: Fc (rabbit IgG heavy chain), end not stated, kept
Binding to immobilized fiber (in words) (fiber): able to bind | Binding to immobilized rPenton (in words) [1]: able to bind | Binding to immobilized PB (in words) (penton base (PB)): unable to bind
